Among the targets are GRIP2_5, Q9C0E4; MAST1, Q9Y2H9; IL16_1, Q14005; NHERF2_2, Q15599; PARD3_3, Q8TEW0; GRID2IP_2, A4D2P6; Inadl_4, Q8NI35; DLG5_1, Q8TDM6; DLG2_3, Q15700; IL16_3, Q14005.
Holding throughout (assay): holdup assay
Common to all, as to parameters: key: below the threshold = too weak to quantify, mostly under pKd 3.1 to 4
Common to all, as to conditions: plain residues with an end cap or a label only (N-terminal biotin on a linker: ado-ado)

A further assay addresses T1, APBA2_2, Q99767.
T1 sequence (Q99767 654-744, limits assumed, looked up): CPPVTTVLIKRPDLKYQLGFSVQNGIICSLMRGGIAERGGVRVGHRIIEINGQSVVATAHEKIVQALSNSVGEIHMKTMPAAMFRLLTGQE

Another assay deals with T2, MPP6, Q9NZW5.
T2 sequence (Q9NZW5 125-219, limits assumed, looked up): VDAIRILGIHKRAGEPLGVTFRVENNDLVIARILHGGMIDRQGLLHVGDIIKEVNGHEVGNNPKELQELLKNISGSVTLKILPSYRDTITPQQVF

The next assay addresses T3, PDZD7_3, Q9H5P4.
T3 sequence (Q9H5P4 857-944, limits assumed, looked up): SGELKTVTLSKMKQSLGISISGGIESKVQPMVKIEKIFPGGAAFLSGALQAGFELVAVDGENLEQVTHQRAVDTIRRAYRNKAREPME

The target of a further assay is T4, DFNB31_1, Q9P202.
T4 sequence (Q9P202 135-233, limits assumed, looked up): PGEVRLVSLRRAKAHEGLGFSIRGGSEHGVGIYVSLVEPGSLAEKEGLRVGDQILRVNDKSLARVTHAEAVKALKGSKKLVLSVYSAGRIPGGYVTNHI

Another assay has as its target T5, HTRA4, P83105.
T5 sequence (P83105 378-476, limits assumed, looked up): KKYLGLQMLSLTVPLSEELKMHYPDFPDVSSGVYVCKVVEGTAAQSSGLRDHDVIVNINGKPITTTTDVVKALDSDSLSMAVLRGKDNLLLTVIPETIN

Another assay concerns the target T6, GRIP1_2, Q9Y3R0.
T6 sequence (Q9Y3R0 145-248, limits assumed, looked up): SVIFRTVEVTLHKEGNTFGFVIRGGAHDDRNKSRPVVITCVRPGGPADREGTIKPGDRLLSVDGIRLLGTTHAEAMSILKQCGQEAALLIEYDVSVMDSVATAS

The target in a further assay is T7, DLG3_3, Q92796.
T7 sequence (Q92796 374-475, limits assumed, looked up): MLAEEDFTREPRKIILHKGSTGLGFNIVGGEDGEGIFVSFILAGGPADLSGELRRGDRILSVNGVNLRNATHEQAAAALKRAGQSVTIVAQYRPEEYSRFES

Another assay has as its target T8, APBA1_2, Q02410.
T8 sequence (Q02410 742-832, limits assumed, looked up): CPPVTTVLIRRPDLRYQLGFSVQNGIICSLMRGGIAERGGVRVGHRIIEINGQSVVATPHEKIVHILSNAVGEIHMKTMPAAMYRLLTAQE

A further assay addresses T9, GRIP1_4, Q9Y3R0.
T9 sequence (Q9Y3R0 467-571, limits assumed, looked up): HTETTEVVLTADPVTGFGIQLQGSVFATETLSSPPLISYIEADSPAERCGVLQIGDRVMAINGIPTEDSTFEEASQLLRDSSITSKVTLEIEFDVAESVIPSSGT

The next assay concerns the target T10, GRIP1_3, Q9Y3R0.
T10 sequence (Q9Y3R0 247-346, limits assumed, looked up): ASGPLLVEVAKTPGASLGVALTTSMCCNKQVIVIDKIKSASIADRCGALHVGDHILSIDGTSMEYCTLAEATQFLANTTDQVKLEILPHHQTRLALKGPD

Another assay has as its target T11, MPP7, Q5T2T1.
T11 sequence (Q5T2T1 134-230, limits assumed, looked up): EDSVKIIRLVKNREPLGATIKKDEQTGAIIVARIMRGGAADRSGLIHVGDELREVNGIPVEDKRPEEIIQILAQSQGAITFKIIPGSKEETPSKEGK

Another assay has as its target T12, SNTG2, Q9NY99.
T12 sequence (Q9NY99 68-166, limits assumed, looked up): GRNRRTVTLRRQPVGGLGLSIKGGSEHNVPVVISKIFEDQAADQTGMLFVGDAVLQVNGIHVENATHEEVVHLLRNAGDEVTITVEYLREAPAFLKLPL

The next assay deals with T13, APBA1_1, Q02410.
T13 sequence (Q02410 651-752, limits assumed, looked up): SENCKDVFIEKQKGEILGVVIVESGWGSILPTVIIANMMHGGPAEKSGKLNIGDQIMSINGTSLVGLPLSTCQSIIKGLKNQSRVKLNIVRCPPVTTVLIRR

A further assay addresses T14, ARHGEF11, O15085.
T14 sequence (O15085 42-136, limits assumed, looked up): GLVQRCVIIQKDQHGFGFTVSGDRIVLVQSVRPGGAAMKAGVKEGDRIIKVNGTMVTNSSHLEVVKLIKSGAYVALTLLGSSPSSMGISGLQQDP

Chain of MAST1, Q9Y2H9 (Q9Y2H9 962-1065): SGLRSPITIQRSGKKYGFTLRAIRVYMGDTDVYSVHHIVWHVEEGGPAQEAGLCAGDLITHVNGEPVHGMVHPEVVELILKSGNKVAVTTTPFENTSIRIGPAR
Chain of DLG5_1, Q8TDM6 (Q8TDM6 617-713): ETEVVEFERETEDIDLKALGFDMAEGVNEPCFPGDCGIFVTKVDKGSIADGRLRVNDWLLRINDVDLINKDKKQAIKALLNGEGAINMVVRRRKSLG
Chain of PARD3_3, Q8TEW0 (Q8TEW0 582-685): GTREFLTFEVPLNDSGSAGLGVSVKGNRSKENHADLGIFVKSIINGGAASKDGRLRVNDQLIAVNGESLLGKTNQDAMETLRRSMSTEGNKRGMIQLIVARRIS
Chain of NHERF2_2, Q15599 (Q15599 142-238): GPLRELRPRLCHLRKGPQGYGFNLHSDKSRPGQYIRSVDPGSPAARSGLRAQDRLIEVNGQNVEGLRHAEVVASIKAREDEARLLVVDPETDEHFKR
Chain of IL16_1, Q14005 (Q14005 210-306): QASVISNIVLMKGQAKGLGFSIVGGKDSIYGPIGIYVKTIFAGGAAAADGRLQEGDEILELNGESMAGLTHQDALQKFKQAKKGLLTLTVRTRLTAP
Chain of IL16_3, Q14005 (Q14005 1107-1207): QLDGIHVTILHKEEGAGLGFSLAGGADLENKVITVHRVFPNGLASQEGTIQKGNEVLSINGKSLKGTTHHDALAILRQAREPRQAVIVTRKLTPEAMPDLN
Chain of Inadl_4, Q8NI35 (Q8NI35 547-651): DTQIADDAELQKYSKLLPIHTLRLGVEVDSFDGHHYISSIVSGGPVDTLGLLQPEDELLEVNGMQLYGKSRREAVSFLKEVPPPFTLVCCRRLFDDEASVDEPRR
Chain of GRID2IP_2, A4D2P6 (A4D2P6 272-370): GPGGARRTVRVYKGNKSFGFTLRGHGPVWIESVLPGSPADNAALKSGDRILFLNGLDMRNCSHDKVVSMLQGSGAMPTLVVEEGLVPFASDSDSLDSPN
Chain of GRIP2_5, Q9C0E4 (Q9C0E4 544-642): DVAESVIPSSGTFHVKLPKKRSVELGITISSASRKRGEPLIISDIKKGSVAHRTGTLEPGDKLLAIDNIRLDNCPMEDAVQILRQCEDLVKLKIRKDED

As usually defined, the pKd is the negative decadic logarithm of the Kd, by convention in mol/L. On to SPDRDRESIV [SCN5A, Q14524], for which the pKd entry is “below the threshold” with GRIP2_5, Q9C0E4; 3.83 with MAST1, Q9Y2H9; “below the threshold” in the assay with APBA2_2, Q99767; “below the threshold” with MPP6, Q9NZW5; 4.63 with PDZD7_3, Q9H5P4; 5.08 in the assay with IL16_1, Q14005. For the same molecule, the pKd result with NHERF2_2, Q15599 is “below the threshold”; in the assay with DFNB31_1, Q9P202, 3.58; with HTRA4, P83105, 3.9; with GRIP1_2, Q9Y3R0, “below the threshold”; with PARD3_3, Q8TEW0, 3.86; with DLG3_3, Q92796, “below the threshold”. The pKd was 3.55 in the assay with APBA1_2, Q02410; “below the threshold” with GRIP1_4, Q9Y3R0; 3.63 with GRID2IP_2, A4D2P6; “below the threshold” in the assay with GRIP1_3, Q9Y3R0; “below the threshold” with Inadl_4, Q8NI35; “below the threshold” with MPP7, Q5T2T1. Further, the pKd result with DLG5_1, Q8TDM6 was “below the threshold”; with SNTG2, Q9NY99 it was 4.69; with DLG2_3, Q15700, “below the threshold”; with APBA1_1, Q02410, “below the threshold”; with ARHGEF11, O15085, 3.51; in the assay with IL16_3, Q14005 it was “below the threshold”.

For DDASLPVSDV [PLEKHA1, Q9HB21], the pKd result with GRIP2_5, Q9C0E4 is “below the threshold”; in the assay with MAST1, Q9Y2H9, 3.96; in the assay with APBA2_2, Q99767, “below the threshold”; with MPP6, Q9NZW5 it was “below the threshold”; with PDZD7_3, Q9H5P4, 5.22; in the assay with IL16_1, Q14005, 3.89. In addition, the pKd result in the assay with NHERF2_2, Q15599 was “below the threshold”; with DFNB31_1, Q9P202 it was 3.75; with HTRA4, P83105, “below the threshold”; with GRIP1_2, Q9Y3R0, “below the threshold”; in the assay with PARD3_3, Q8TEW0, “below the threshold”; in the assay with DLG3_3, Q92796 it was “below the threshold”. Also, the pKd with APBA1_2, Q02410 was 3.89; in the assay with GRIP1_4, Q9Y3R0, “below the threshold”; with GRID2IP_2, A4D2P6, 4.35; with GRIP1_3, Q9Y3R0, “below the threshold”; with Inadl_4, Q8NI35, “below the threshold”; with MPP7, Q5T2T1, “below the threshold”. The negative-log Kd (pKd) entry with DLG5_1, Q8TDM6 was “below the threshold”; with SNTG2, Q9NY99, 4.48; with DLG2_3, Q15700 it was “below the threshold”; with APBA1_1, Q02410 it was “below the threshold”; with ARHGEF11, O15085, 4.22; with IL16_3, Q14005, “below the threshold”.

PPGKHLVTEV [KCNA7, Q96RP8]: the pKd result with GRIP2_5, Q9C0E4 was “below the threshold”; in the assay with MAST1, Q9Y2H9 it was 4.58; in the assay with APBA2_2, Q99767, “below the threshold”; with MPP6, Q9NZW5, “below the threshold”; in the assay with PDZD7_3, Q9H5P4 it was 5.2; in the assay with IL16_1, Q14005, 3.5. Also, the pKd entry was “below the threshold” with NHERF2_2, Q15599; “below the threshold” with DFNB31_1, Q9P202; 4.61 with HTRA4, P83105; “below the threshold” in the assay with GRIP1_2, Q9Y3R0; “below the threshold” in the assay with PARD3_3, Q8TEW0; 4.33 with DLG3_3, Q92796. In addition, the pKd in the assay with APBA1_2, Q02410 is 4.17; in the assay with GRIP1_4, Q9Y3R0 it was “below the threshold”; in the assay with GRID2IP_2, A4D2P6, 4.37; with GRIP1_3, Q9Y3R0, “below the threshold”; in the assay with Inadl_4, Q8NI35, “below the threshold”; in the assay with MPP7, Q5T2T1 it was “below the threshold”. For the same molecule, the pKd entry was “below the threshold” with DLG5_1, Q8TDM6; “below the threshold” in the assay with SNTG2, Q9NY99; 4.71 in the assay with DLG2_3, Q15700; “below the threshold” in the assay with APBA1_1, Q02410; 5.2 with ARHGEF11, O15085; “below the threshold” with IL16_3, Q14005.

As for ELSATVTTDC [TRIP6, Q15654], the pKd entry in the assay with GRIP2_5, Q9C0E4 was “below the threshold”; in the assay with MAST1, Q9Y2H9 it was 3.63; in the assay with APBA2_2, Q99767 it was “below the threshold”; with MPP6, Q9NZW5, “below the threshold”; in the assay with PDZD7_3, Q9H5P4, 3.8; with IL16_1, Q14005 it was “below the threshold”. Moreover, the pKd with NHERF2_2, Q15599 was 3.83; in the assay with DFNB31_1, Q9P202, 3.81; in the assay with HTRA4, P83105, “below the threshold”; with GRIP1_2, Q9Y3R0, “below the threshold”; with PARD3_3, Q8TEW0, “below the threshold”; with DLG3_3, Q92796 it was “below the threshold”. In addition, the pKd result is “below the threshold” in the assay with APBA1_2, Q02410; “below the threshold” in the assay with GRIP1_4, Q9Y3R0; 3.69 with GRID2IP_2, A4D2P6; “below the threshold” with GRIP1_3, Q9Y3R0; “below the threshold” with Inadl_4, Q8NI35; 3.65 in the assay with MPP7, Q5T2T1. In addition, the pKd result with DLG5_1, Q8TDM6 is “below the threshold”; in the assay with SNTG2, Q9NY99 it was 3.79; with DLG2_3, Q15700, 3.57; with APBA1_1, Q02410 it was “below the threshold”; with ARHGEF11, O15085, 4.61; with IL16_3, Q14005, 3.59.

The values above are taken from PMC9482650, “Quantitative fragmentomics allow affinity mapping of interactomes” (Nature Communications, 2022).
